This assay addresses T1, recombinant human VISTA-Fc protein (human, UniProt Q9H7M9 33-194).
T1 sequence (looked up): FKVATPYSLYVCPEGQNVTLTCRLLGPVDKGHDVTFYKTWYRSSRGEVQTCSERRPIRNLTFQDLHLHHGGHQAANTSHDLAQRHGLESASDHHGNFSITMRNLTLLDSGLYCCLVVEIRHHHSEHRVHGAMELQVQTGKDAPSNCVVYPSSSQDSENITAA
As to the kind of experiment: ELISA. For orientation: In an ELISA, binding on a coated surface is turned into a signal by an enzyme label.

B1: recombinant human VSIG3-Fc (Fc fusion, UniProt Q5DX21 23-241, looked up)
chain: LEVSESPGSIQVARGQPAVLPCTFTTSAALINLNVIWMVTPLSNANQPEQVILYQGGQMFDGAPRFHGRVGFTGTMPATNVSIFINNTQLSDTGTYQCLVNNLPDIGGRNIGVTGLTVLVPPSAPHCQIQGSQDIGSDVILLCSSEEGIPRPTYLWEKLDNTLKLPPTATQDQVQGTVTIRNISALSSGLYQCVASNAIGTSTCLLDLQVISPQPRNIG
modifications: biotin (biotinylated using Invitrogen kit #21455) in the inhibition assay
B1: the EC50 (commonly the concentration giving half of the maximal effect) turned out to be 24 nM.
